This is an account of results in the supplement of paper PMC7877785.

The data set is described as follows: self-splicing fitness, log relative to wild type (ln ratio); higher = more splicing; Tetrahymena group I intron in knt gene, E. coli kanamycin selection, DiMSum; sequences stand for … in CUCUCU…GGAGGGAAAAGUUAUCAGGCAUGCACCUGGUAGCUAGUCUUUAAACCAAUAGAUUGCAUCGGUUUAAAAGGCAAGACCGUCAAAUUGCGGGAAAGGGGUCAACAGCCGUUCAGUACCAAGUCUCAGGGGAAACUUUGAGAUGGCCUUGCAAAGGGUAUGGUAAUAAGCUGACGGACAUGGUCCUAACCACGCAGCCAAGUCCUAAGUCAACAGAUCUUCUGUUGAUAUGGAUGCAGUUCACAGACUAAAUGUCGGUCGGGGAAGAUGUAUUCUUCUCAUAAGAUAUAGUCGGACCUCUCCUUAAUGGGAGCUAGCGGAUGAAGUGAUGCAACACUGGAGCCGCUGGGAACUAAUUUGUAUGCGAAAGUAUAUUGAUUAGUUUUGGAGUACUCGUGGUCG
The procedure, abridged: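 Pooled colonies went to amplicon sequencing on an Illumina HiSeq 2500 after six replicate transformations. The plates were LB agar with 100 μg/mL carbenicillin, 50 μM IPTG and 0.2% rhamnose, with or without 25 μg/mL kanamycin, incubated overnight at 37°C or 30°C. The E. coli BL21(DE3) library had all eight P1ex-region intron nucleotides randomised, the intron placed in the knt kanamycin-resistance gene on pET-22b(+). DiMSum fitness is the error-weighted combination of replicate fold changes, kanamycin against none, normalised to wild type.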

± gives the uncertainty stated by the source.

Consider UAGUAGCAAUAUUACGGGUG, for which the “self-splicing fitness (ln)” value is, setting by setting: (30 °C) -0.96 ± 0.071; (37 °C) -0.773 ± 0.079.
Taken in the same sequence, the figures for CGGAAGCAAUAUUACGACAA were -2.42 ± 0.31 and -2.2 ± 0.33.
Taken in the same sequence, the figures for CGUGAGCAAUAUUACGAUCG were -3.02 ± 0.27 and 0.475 ± 0.25.
With AGCGAGCAAUAUUACGUAAG, the “self-splicing fitness (ln)” value (37 °C) is -1.76 ± 0.37.
Consider GUUGAGCAAUAUUACGUAUG, for which the “self-splicing fitness (ln)” value (30 °C) was -2.76 ± 0.34 and the “self-splicing fitness (ln)” value (37 °C) is -1.52 ± 0.29.
Taken in the same sequence, the figures for GUCCAGCAAUAUUACGGUCA were -0.244 ± 0.07 and -0.0837 ± 0.072.
Taken in the same sequence, the figures for AAUCAGCAAUAUUACGGAAG were -1.75 ± 0.11 and -0.948 ± 0.12.
Consider UGCAAGCAAUAUUACGAUUC, for which the “self-splicing fitness (ln)” value was -3.54 ± 0.32 (30 °C) and -1.31 ± 0.21 (37 °C).
Taken in the same sequence, the figures for CACGAGCAAUAUUACGCAGU were -3.4 ± 0.31 and -3.5 ± 0.37.
Taken in the same sequence, the figures for ACAUAGCAAUAUUACGUAUG were -2.67 ± 0.12 and -1.73 ± 0.12.
Taken in the same sequence, the figures for CUGCAGCAAUAUUACGAAGC were -2.78 ± 0.28 and -2.6 ± 0.28.
Consider UAGUAGCAAUAUUACGACUA, for which the “self-splicing fitness (ln)” value reads like this: (30 °C) -0.0384 ± 0.12; (37 °C) 0.251 ± 0.12.
CCUGAGCAAUAUUACGAUUG: the “self-splicing fitness (ln)” value reads like this: (30 °C) -2.48 ± 0.17; (37 °C) -2.83 ± 0.27.
Taken in the same sequence, the figures for GAGAAGCAAUAUUACGGGGU were -3.06 ± 0.2 and -3.13 ± 0.28.
Regarding UAGAAGCAAUAUUACGGCAC, the “self-splicing fitness (ln)” value is, setting by setting: (30 °C) -2.42 ± 0.09; (37 °C) -1.89 ± 0.095.
Taken in the same sequence, the figures for GUUGAGCAAUAUUACGAGUC were -3.09 ± 0.28 and -0.0995 ± 0.16.
GUUGAGCAAUAUUACGACCC: the “self-splicing fitness (ln)” value (37 °C) is -0.607 ± 0.49.
AAUUAGCAAUAUUACGCGCA: the “self-splicing fitness (ln)” value is -0.118 ± 0.11 (30 °C) and 0.114 ± 0.15 (37 °C).
Consider AUAUAGCAAUAUUACGGAAC, for which the “self-splicing fitness (ln)” value (30 °C) was -2.89 ± 0.41.
For GUCAAGCAAUAUUACGAUGU, the “self-splicing fitness (ln)” value by setting is: (30 °C) -1.75 ± 0.042; (37 °C) -0.404 ± 0.055.
Taken in the same sequence, the figures for AUUUAGCAAUAUUACGAUGA were -1.8 ± 0.14 and -0.68 ± 0.15.
Taken in the same sequence, the figures for AUUAAGCAAUAUUACGGGGC were -3 ± 0.21 and -1.98 ± 0.26.
Taken in the same sequence, the figures for AUCGAGCAAUAUUACGGCAC were -3.16 ± 0.15 and -1.87 ± 0.16.
On to GCUCAGCAAUAUUACGGUUA, for which the “self-splicing fitness (ln)” value (30 °C) was -0.772 ± 0.12 and the “self-splicing fitness (ln)” value (37 °C) is -0.237 ± 0.11.
Taken in the same sequence, the figures for CGUAAGCAAUAUUACGAAGU were -3.81 ± 0.18 and -2.51 ± 0.17.
With ACAAAGCAAUAUUACGUUCC, the “self-splicing fitness (ln)” value by setting is: (30 °C) -2.06 ± 0.11; (37 °C) -1.73 ± 0.15.
As to CUGCAGCAAUAUUACGUUCU, the “self-splicing fitness (ln)” value is -2.88 ± 0.21 (30 °C) and -1.88 ± 0.2 (37 °C).
Taken in the same sequence, the figures for CUUCAGCAAUAUUACGUCCA were -2.19 ± 0.29 and -2.63 ± 0.36.
Taken in the same sequence, the figures for CCACAGCAAUAUUACGCGGC were -3.19 ± 0.24 and -3.09 ± 0.35.
Consider UAACAGCAAUAUUACGUUAC, for which the “self-splicing fitness (ln)” value was -3.91 ± 0.2 (30 °C) and -3.09 ± 0.24 (37 °C).
With GCUAAGCAAUAUUACGUGCA, the “self-splicing fitness (ln)” value reads like this: (30 °C) -0.433 ± 0.094; (37 °C) -0.212 ± 0.1.
For the sequence CUAUAGCAAUAUUACGGCUA, the “self-splicing fitness (ln)” value runs as follows: (30 °C) -2.95 ± 0.28; (37 °C) -3.42 ± 0.47.
As to CAAUAGCAAUAUUACGGCGG, the “self-splicing fitness (ln)” value (30 °C) came to 0.429 ± 0.11 and the “self-splicing fitness (ln)” value (37 °C) is -0.0335 ± 0.14.
As for UCUCAGCAAUAUUACGGAGG, the “self-splicing fitness (ln)” value is -4.93 ± 0.29 (30 °C) and -1.97 ± 0.17 (37 °C).
As for AGAGAGCAAUAUUACGGGUC, the “self-splicing fitness (ln)” value (37 °C) is -3.11 ± 0.48.
For AAUCAGCAAUAUUACGGAUC, the “self-splicing fitness (ln)” value reads like this: (30 °C) -0.358 ± 0.073; (37 °C) 0.17 ± 0.1.
Taken in the same sequence, the figures for GGCUAGCAAUAUUACGACAA were -0.713 ± 0.29 and -0.198 ± 0.33.
As for UUCGAGCAAUAUUACGUGGC, the “self-splicing fitness (ln)” value (30 °C) is -1.49 ± 0.48.
Turning to UGAGAGCAAUAUUACGUUGC, the “self-splicing fitness (ln)” value runs as follows: (30 °C) -2.35 ± 0.22; (37 °C) -1.06 ± 0.33.
Taken in the same sequence, the figures for AAGGAGCAAUAUUACGUCAA were -1.97 ± 0.22 and -2.96 ± 0.4.
With AGCCAGCAAUAUUACGCGAC, the “self-splicing fitness (ln)” value was -0.935 ± 0.13 (30 °C) and -1.78 ± 0.2 (37 °C).
For the sequence GCAUAGCAAUAUUACGGUAG, the “self-splicing fitness (ln)” value is, setting by setting: (30 °C) -3.52 ± 0.26; (37 °C) -3.01 ± 0.3.
Consider CCGAAGCAAUAUUACGGCGU, for which the “self-splicing fitness (ln)” value reads like this: (30 °C) -3.6 ± 0.17; (37 °C) -2.79 ± 0.17.
GCAUAGCAAUAUUACGCGCA: the “self-splicing fitness (ln)” value reads like this: (30 °C) -1.09 ± 0.12; (37 °C) -0.397 ± 0.14.
Taken in the same sequence, the figures for AGCGAGCAAUAUUACGUUGU were -3.39 ± 0.13 and -3.31 ± 0.15.
As to CACUAGCAAUAUUACGUACU, the “self-splicing fitness (ln)” value is, setting by setting: (30 °C) -2.87 ± 0.16; (37 °C) -2.81 ± 0.19.
Taken in the same sequence, the figures for AACAAGCAAUAUUACGCACA were 0.157 ± 0.071 and -0.163 ± 0.094.
Taken in the same sequence, the figures for UACAAGCAAUAUUACGCCUC were -3.38 ± 0.48 and -2.1 ± 0.4.
Taken in the same sequence, the figures for CGGAAGCAAUAUUACGCCUA were -1.72 ± 0.21 and -0.963 ± 0.18.
With UUACAGCAAUAUUACGUAAU, the “self-splicing fitness (ln)” value runs as follows: (30 °C) -3.27 ± 0.26; (37 °C) -2.32 ± 0.19.
Take ACAAAGCAAUAUUACGAACC: the “self-splicing fitness (ln)” value by setting is: (30 °C) -0.815 ± 0.21; (37 °C) -1.44 ± 0.19.
With UAUUAGCAAUAUUACGAUGU, the “self-splicing fitness (ln)” value was -3.01 ± 0.23 (30 °C) and -1.06 ± 0.15 (37 °C).
Taken in the same sequence, the figures for AACUAGCAAUAUUACGGCAA were -1.01 ± 0.076 and -0.905 ± 0.09.
On to AACUAGCAAUAUUACGAUGC, for which the “self-splicing fitness (ln)” value reads like this: (30 °C) -1.25 ± 0.12; (37 °C) -2.06 ± 0.25.
Taken in the same sequence, the figures for ACGCAGCAAUAUUACGUUGU were -3.57 ± 0.13 and -2.84 ± 0.12.
For UGGCAGCAAUAUUACGACAC, the “self-splicing fitness (ln)” value (37 °C) was -0.701 ± 0.31.
Turning to UUCGAGCAAUAUUACGAGGG, the “self-splicing fitness (ln)” value was -3.94 ± 0.3 (30 °C) and -3.12 ± 0.37 (37 °C).
With AGAUAGCAAUAUUACGCAGC, the “self-splicing fitness (ln)” value was -2.44 ± 0.22 (30 °C) and -1.43 ± 0.4 (37 °C).
Taken in the same sequence, the figures for UAGCAGCAAUAUUACGAAAG were -2.58 ± 0.21 and -1.73 ± 0.25.
Consider ACAAAGCAAUAUUACGCAUA, for which the “self-splicing fitness (ln)” value was -2.12 ± 0.12 (30 °C) and -0.921 ± 0.11 (37 °C).
On to CCGUAGCAAUAUUACGGUAU, for which the “self-splicing fitness (ln)” value runs as follows: (30 °C) -4.05 ± 0.21; (37 °C) -2.85 ± 0.2.
Taken in the same sequence, the figures for GGGGAGCAAUAUUACGUGGA were -2.04 ± 0.35 and -2.48 ± 0.39.
